Data: PMC6555819, “Comprehensive study of nuclear receptor DNA binding provides a revised framework for understanding receptor specificity”

Biological target: PPARg:RXRa (Homo sapiens, UniProt P37231;P19793 full;full)
Test: no ligand; PBM; 180 nM : 90 nM RXRa; PBS pH 7.4, 2% milk, 0.02% Triton X-100, 1 mM DTT, BSA, 0.4 mg/ml salmon testes DNA
Details: tags: His kept;His cleaved; copies: 1;1; label: surface-attached array probe

Sequence of PPARg:RXRa (P37231 29-505, chain 1 of 2): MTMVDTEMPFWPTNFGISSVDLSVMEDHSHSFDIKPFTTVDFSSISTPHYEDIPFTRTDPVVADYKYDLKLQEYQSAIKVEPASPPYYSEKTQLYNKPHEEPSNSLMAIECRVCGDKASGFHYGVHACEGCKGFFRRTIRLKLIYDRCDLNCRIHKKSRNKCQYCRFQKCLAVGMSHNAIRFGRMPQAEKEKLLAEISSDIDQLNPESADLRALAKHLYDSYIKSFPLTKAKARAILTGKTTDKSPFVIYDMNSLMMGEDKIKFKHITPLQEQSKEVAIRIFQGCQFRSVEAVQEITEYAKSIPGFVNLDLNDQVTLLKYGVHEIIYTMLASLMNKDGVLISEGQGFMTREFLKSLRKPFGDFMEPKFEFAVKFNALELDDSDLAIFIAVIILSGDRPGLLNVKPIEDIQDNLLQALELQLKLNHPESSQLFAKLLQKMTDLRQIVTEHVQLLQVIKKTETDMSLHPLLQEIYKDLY
Sequence of PPARg:RXRa (P19793 whole entry, chain 2 of 2): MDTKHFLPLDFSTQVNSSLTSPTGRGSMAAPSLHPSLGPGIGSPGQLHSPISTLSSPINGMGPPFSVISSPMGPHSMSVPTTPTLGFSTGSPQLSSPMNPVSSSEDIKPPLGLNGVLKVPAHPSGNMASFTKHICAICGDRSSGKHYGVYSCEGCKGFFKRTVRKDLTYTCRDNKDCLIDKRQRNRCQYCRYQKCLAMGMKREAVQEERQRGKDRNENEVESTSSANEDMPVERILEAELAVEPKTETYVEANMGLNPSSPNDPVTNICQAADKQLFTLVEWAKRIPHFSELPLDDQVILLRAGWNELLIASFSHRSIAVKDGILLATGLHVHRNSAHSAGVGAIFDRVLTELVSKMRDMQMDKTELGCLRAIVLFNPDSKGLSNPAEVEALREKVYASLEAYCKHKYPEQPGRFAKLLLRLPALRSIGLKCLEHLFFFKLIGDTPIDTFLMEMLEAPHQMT

Row | Binder | binding signal
1 | NRC3_wobSeed125_DR5_A14G_o1 (dsDNA) DNA 1: GCCCTTACGGGTCGCTGACAGGTTATAGCATTTGGAGCGATTGACAGCGTAGAATGAAGG DNA 2: CCTTCATTCTACGCTGTCAATCGCTCCAAATGCTATAACCTGTCAGCGACCCGTAAGGGC | 0.49 PBM z-score against 500 random probes
2 | NRC3_wobSeed125_DR5_G11T_o1 (dsDNA) DNA 1: GCCCTTACGGTTCACTGACAGGTTATAGCATTTGGAGCGATTGACAGCGTAGAATGAAGG DNA 2: CCTTCATTCTACGCTGTCAATCGCTCCAAATGCTATAACCTGTCAGTGAACCGTAAGGGC | 0.49 PBM z-score against 500 random probes
3 | NRC3_wobSeed55_DR2_A15T_o1 (dsDNA) DNA 1: GCTCATATAGGTAATCAGGTGAAAGTCCGTAAGTTAGCGATTGACAGCGTAGAATGAAGG DNA 2: CCTTCATTCTACGCTGTCAATCGCTAACTTACGGACTTTCACCTGATTACCTATATGAGC | 3.84 PBM z-score against 500 random probes
4 | NRC3_wobSeed119_DR4_A9G_o1 (dsDNA) DNA 1: GCGGAACGGGGGCATTCGAGTTGATAGCATGGCGATGCGATTGACAGCGTAGAATGAAGG DNA 2: CCTTCATTCTACGCTGTCAATCGCATCGCCATGCTATCAACTCGAATGCCCCCGTTCCGC | 3 PBM z-score against 500 random probes
5 | NRC3_wobSeed63_DR2_G11C_o1 (dsDNA) DNA 1: GCCGAACTAGCTCACCAGGACAGTGAAGAGGTTGGAGCGATTGACAGCGTAGAATGAAGG DNA 2: CCTTCATTCTACGCTGTCAATCGCTCCAACCTCTTCACTGTCCTGGTGAGCTAGTTCGGC | 0.17 PBM z-score against 500 random probes
6 | NRC3_wobSeed40_DR1_A21T_o1 (dsDNA) DNA 1: GCTAGCCTAGGTCATGGGCCTGTATACCACGCGAACGCGATTGACAGCGTAGAATGAAGG DNA 2: CCTTCATTCTACGCTGTCAATCGCGTTCGCGTGGTATACAGGCCCATGACCTAGGCTAGC | 3.23 PBM z-score against 500 random probes
7 | NRC3_wobSeed32_DR1_G18C_o1 (dsDNA) DNA 1: GCTCTTGTAGATCAAAGCTTAAGAAAGCCGAAGCCTGCGATTGACAGCGTAGAATGAAGG DNA 2: CCTTCATTCTACGCTGTCAATCGCAGGCTTCGGCTTTCTTAAGCTTTGATCTACAAGAGC | -0.29 PBM z-score against 500 random probes
8 | NRC3_wobSeed20_DR0_G4A_o1 (dsDNA) DNA 1: GCAAAATGAGGTTAAGATCAGGGAAACAGAATACATGCGATTGACAGCGTAGAATGAAGG DNA 2: CCTTCATTCTACGCTGTCAATCGCATGTATTCTGTTTCCCTGATCTTAACCTCATTTTGC | 3.12 PBM z-score against 500 random probes
9 | NRC3_wobSeed79_DR3_C17A_o1 (dsDNA) DNA 1: GCTCATATAGGTAATAAAGGTGAAAGTCGGCATCTAGCGATTGACAGCGTAGAATGAAGG DNA 2: CCTTCATTCTACGCTGTCAATCGCTAGATGCCGACTTTCACCTTTATTACCTATATGAGC | 3.46 PBM z-score against 500 random probes
10 | NRC3_random_hg19_164_o1 (dsDNA) DNA 1: GCCATGAGGACCTGCAGCGCAATGACCTCCGAGGCAGCGATTGACAGCGTAGAATGAAGG DNA 2: CCTTCATTCTACGCTGTCAATCGCTGCCTCGGAGGTCATTGCGCTGCAGGTCCTCATGGC | 0.42 PBM z-score against 500 random probes
11 | NRC3_wobSeed22_DR0_T22G_o1 (dsDNA) DNA 1: GCTTACCAAGGTGAAGGTCGTGGATCCCTCTGTAGAGCGATTGACAGCGTAGAATGAAGG DNA 2: CCTTCATTCTACGCTGTCAATCGCTCTACAGAGGGATCCACGACCTTCACCTTGGTAAGC | 3.58 PBM z-score against 500 random probes
12 | NRC3_wobSeed85_DR3_A27T_o1 (dsDNA) DNA 1: GCCGTCCAAGGTCAGAGAGGTCAGTGTATGCCGAGTGCGATTGACAGCGTAGAATGAAGG DNA 2: CCTTCATTCTACGCTGTCAATCGCACTCGGCATACACTGACCTCTCTGACCTTGGACGGC | 3.51 PBM z-score against 500 random probes
13 | NRC3_wobSeed85_DR3_A28C_o1 (dsDNA) DNA 1: GCCGTCCAAGGTCAGAGAGGTCAGTGACTGCCGAGTGCGATTGACAGCGTAGAATGAAGG DNA 2: CCTTCATTCTACGCTGTCAATCGCACTCGGCAGTCACTGACCTCTCTGACCTTGGACGGC | 3.39 PBM z-score against 500 random probes
14 | NRC3_wobSeed76_DR3_A18C_o1 (dsDNA) DNA 1: GCCCTACTGGGCCAAAACGGTCATTGATGCCGATAAGCGATTGACAGCGTAGAATGAAGG DNA 2: CCTTCATTCTACGCTGTCAATCGCTTATCGGCATCAATGACCGTTTTGGCCCAGTAGGGC | 0.35 PBM z-score against 500 random probes
15 | NRC3_wobSeed53_DR2_C15G_o1 (dsDNA) DNA 1: GCCCTTACGGGTCAGGAGGTTATAGCACGACGAGCGGCGATTGACAGCGTAGAATGAAGG DNA 2: CCTTCATTCTACGCTGTCAATCGCCGCTCGTCGTGCTATAACCTCCTGACCCGTAAGGGC | 3.77 PBM z-score against 500 random probes
16 | NRC3_wobSeed135_DR5_A14C_o1 (dsDNA) DNA 1: GCCGAACTAGGTCCTTGACAGGACAGTGAATAGTAAGCGATTGACAGCGTAGAATGAAGG DNA 2: CCTTCATTCTACGCTGTCAATCGCTTACTATTCACTGTCCTGTCAAGGACCTAGTTCGGC | 0.43 PBM z-score against 500 random probes
17 | NRC3_wobSeed41_DR1_T23G_o1 (dsDNA) DNA 1: GCATATGTAGGTTAAGGGTCATGCAGGTTGGTTCGCGCGATTGACAGCGTAGAATGAAGG DNA 2: CCTTCATTCTACGCTGTCAATCGCGCGAACCAACCTGCATGACCCTTAACCTACATATGC | 12.4 PBM z-score against 500 random probes

Row | Binder | binding signal
18 | NRC3_wobSeed133_DR5_G22C_o1 (dsDNA) DNA 1: GCCGTCCAAGGTCAATGCTAGCTCAGTGAAAGCATTGCGATTGACAGCGTAGAATGAAGG DNA 2: CCTTCATTCTACGCTGTCAATCGCAATGCTTTCACTGAGCTAGCATTGACCTTGGACGGC | 3.28 PBM z-score against 500 random probes
19 | NRC3_wobSeed38_DR1_T12A_o1 (dsDNA) DNA 1: GCCCTGCTAGGACAATGGTCAGCTAAAGCAGCTCGCGCGATTGACAGCGTAGAATGAAGG DNA 2: CCTTCATTCTACGCTGTCAATCGCGCGAGCTGCTTTAGCTGACCATTGTCCTAGCAGGGC | 0.3 PBM z-score against 500 random probes
20 | NRC3_wobSeed33_DR1_A16T_o1 (dsDNA) DNA 1: GCATCTCTAGGTAAATGTTCAGTGAATCCCGAGGATGCGATTGACAGCGTAGAATGAAGG DNA 2: CCTTCATTCTACGCTGTCAATCGCATCCTCGGGATTCACTGAACATTTACCTAGAGATGC | 0.4 PBM z-score against 500 random probes
21 | NRC3_wobSeed90_DR3_G9C_o1 (dsDNA) DNA 1: GCCATACACGGTCAGCTAGGCCAGAGTAGGGACGGCGCGATTGACAGCGTAGAATGAAGG DNA 2: CCTTCATTCTACGCTGTCAATCGCGCCGTCCCTACTCTGGCCTAGCTGACCGTGTATGGC | 0.49 PBM z-score against 500 random probes
22 | NRC3_wobSeed58_DR2_G18C_o1 (dsDNA) DNA 1: GCATCGAAAGGTCGTGACGTGAGTATACAGAAAGGCGCGATTGACAGCGTAGAATGAAGG DNA 2: CCTTCATTCTACGCTGTCAATCGCGCCTTTCTGTATACTCACGTCACGACCTTTCGATGC | 3.63 PBM z-score against 500 random probes
23 | NRC3_wobSeed10_DR0_A9C_o1 (dsDNA) DNA 1: GCATCGAACGGTCGAGGTGAGTATAGAGAAAGGGAAGCGATTGACAGCGTAGAATGAAGG DNA 2: CCTTCATTCTACGCTGTCAATCGCTTCCCTTTCTCTATACTCACCTCGACCGTTCGATGC | 0.48 PBM z-score against 500 random probes
24 | NRC3_wobSeed64_DR2_C13G_o1 (dsDNA) DNA 1: GCTAGCCTAGGTGATTGGGCCAGTATAGTACGCATCGCGATTGACAGCGTAGAATGAAGG DNA 2: CCTTCATTCTACGCTGTCAATCGCGATGCGTACTATACTGGCCCAATCACCTAGGCTAGC | 0.42 PBM z-score against 500 random probes
25 | NRC3_random_hg19_493_o1 (dsDNA) DNA 1: GCGCCTAGCAGTCTATACAATTCTGAAGGATGCACCGCGATTGACAGCGTAGAATGAAGG DNA 2: CCTTCATTCTACGCTGTCAATCGCGGTGCATCCTTCAGAATTGTATAGACTGCTAGGCGC | 0.38 PBM z-score against 500 random probes
26 | NRC3_wobSeed61_DR2_C21G_o1 (dsDNA) DNA 1: GCCGTCCAAGGTCAGCAGGTGAGTGAAAGCGACGTGGCGATTGACAGCGTAGAATGAAGG DNA 2: CCTTCATTCTACGCTGTCAATCGCCACGTCGCTTTCACTCACCTGCTGACCTTGGACGGC | 3.18 PBM z-score against 500 random probes
27 | NRC3_wobSeed65_DR2_T6C_o1 (dsDNA) DNA 1: GCATACGTAGGTTATCGGGTCATTCAGTTTGCGCATGCGATTGACAGCGTAGAATGAAGG DNA 2: CCTTCATTCTACGCTGTCAATCGCATGCGCAAACTGAATGACCCGATAACCTACGTATGC | 3.06 PBM z-score against 500 random probes
28 | NRC3_wobSeed28_DR1_T23A_o1 (dsDNA) DNA 1: GCCCTACTGGGCCAAAGGTCATAGATTCCAATGCTCGCGATTGACAGCGTAGAATGAAGG DNA 2: CCTTCATTCTACGCTGTCAATCGCGAGCATTGGAATCTATGACCTTTGGCCCAGTAGGGC | 12.8 PBM z-score against 500 random probes
29 | NRC3_wobSeed13_DR0_G10C_o1 (dsDNA) DNA 1: GCCGTCCAACGTCAAGGTCAGTGAAAGAGACTCGAAGCGATTGACAGCGTAGAATGAAGG DNA 2: CCTTCATTCTACGCTGTCAATCGCTTCGAGTCTCTTTCACTGACCTTGACGTTGGACGGC | 0.38 PBM z-score against 500 random probes
30 | NRC3_wobSeed4_DR0_G17C_o1 (dsDNA) DNA 1: GCCCTACTGGGCCAAGCTCATTGATCAGTCAAAGCAGCGATTGACAGCGTAGAATGAAGG DNA 2: CCTTCATTCTACGCTGTCAATCGCTGCTTTGACTGATCAATGAGCTTGGCCCAGTAGGGC | 0.05 PBM z-score against 500 random probes
31 | NRC3_wobSeed72_DR2_G11C_o1 (dsDNA) DNA 1: GCTCGAGTAGCTTACGGGGGCATTCAGGGATGAAGAGCGATTGACAGCGTAGAATGAAGG DNA 2: CCTTCATTCTACGCTGTCAATCGCTCTTCATCCCTGAATGCCCCCGTAAGCTACTCGAGC | 0.35 PBM z-score against 500 random probes
32 | NRC3_wobSeed46_DR1_G10A_o1 (dsDNA) DNA 1: GCTTACCAAAGTGAAAGGTCGTTGATGCACGCCTTGGCGATTGACAGCGTAGAATGAAGG DNA 2: CCTTCATTCTACGCTGTCAATCGCCAAGGCGTGCATCAACGACCTTTCACTTTGGTAAGC | 3.7 PBM z-score against 500 random probes
33 | NRC3_wobSeed50_DR2_A22C_o1 (dsDNA) DNA 1: GCCCTAGTTGGTCAGGAGGTCCCACACCGGATATGAGCGATTGACAGCGTAGAATGAAGG DNA 2: CCTTCATTCTACGCTGTCAATCGCTCATATCCGGTGTGGGACCTCCTGACCAACTAGGGC | 0.46 PBM z-score against 500 random probes
